Usually stoichiometry N stands for a count of units in the complex or per binding partner.

The record followed here is article doi:10.1101/2020.02.28.969287.

In assay [1] the target is E. coli bo3 oxidase (E. coli) (UniProt P0ABJ3). The assay can be described thus: SEC-MALS. (In gel filtration, larger molecules generally elute earlier.)
Assay [2] shares this target. The assay can be described thus: mass photometry.
Assay [3] has as its target E. coli outer membrane protein F (OmpF) (E. coli) (UniProt P02931). Put plainly: mass photometry.
For assay [4] the target is unchanged. The assay can be described thus: native MS.
Assay [5] deals with potassium channel KcsA from Streptomyces lividans (pET-28a construct, N-terminal His-tag) (Streptomyces lividans) (UniProt P0A334). The assay can be described thus: mass photometry.
For assay [6] the target is unchanged. Put plainly: mass photometry. The source holds these as a separate data set.
The target in assay [7] is KcsA (pT7-KcsA construct, N-terminal His-tag) in native SMA nanodiscs (Streptomyces lividans) (UniProt P0A334). Put plainly: mass photometry + other: lipid-to-protein ratio.

Read-outs that look alike come from different tables or passages of the source.

Turning to “E. coli bo3 oxidase (from UniProt P0ABJ3 1-204) (complex)”, in assay [1], the relative abundance of dimers stood at 28%, the relative abundance of monomers is 72% and the stoichiometry N came out at 2. In assay [2], this substance came in with a relative abundance of dimers of 20%, a relative abundance of monomers of 80% and a stoichiometry N of 2.

Take “E. coli outer membrane protein F (OmpF) (from UniProt P02931 23-362) (natural protein)”: the stoichiometry N in assay [3] and in assay [4] was 3 throughout.

Take “potassium channel KcsA from Streptomyces lividans (pET-28a construct, N-terminal His-tag) (from UniProt P0A334 1-160) (natural protein)”: the stoichiometry N in assay [5] and in assay [6] was 4 each time.

As for “KcsA (pT7-KcsA construct, N-terminal His-tag) in native SMA nanodiscs (from UniProt P0A334 1-160) (natural protein)”, the stoichiometry N in assay [7] was 8.
